Here are results for 1 substance from article PMC3688735.

This experiment has as its target mKate. The experiment in a line: SEC; gel filtration on a 1x90 cm Econo-column packed with Sephacryl-S200, equilibrated with 25 mM Tris-HCl pH 7.5, 150 mM NaCl; self-association of the purified fluorescent protein.

Take mKate: the stoichiometry N was 2.

By stoichiometry N is commonly meant the number of molecules, sites or subunits per partner or assembly.
